Results taken from paper PMC5378391, “Maltose binding protein-fusion enhances the bioactivity of truncated forms of pig myostatin propeptide produced in E. coli” (PLoS ONE, 2017).

T1: Myostatin (MSTN) (UniProt O14793 267-375)
T1 sequence (looked up): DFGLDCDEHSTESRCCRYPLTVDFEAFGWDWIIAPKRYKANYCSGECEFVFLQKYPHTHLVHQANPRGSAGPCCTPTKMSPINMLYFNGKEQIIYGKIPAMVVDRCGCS


Columns and labels:
Myostatin (MSTN) [1] = molecular target: Myostatin (MSTN) (UniProt O14793)
[2] = molecular target: Pro23-98 (MBP removed by factor Xa) (pig) (UniProt O18831); assay: non-reducing SDS-PAGE; samples boiled in SDS loading buffer without beta-mercaptoethanol (unreduced) or with it (reduced); 15% gel, Coomassie blue; can show only disulfide-linked dimers
Myostatin (MSTN) [3] = molecular target: Myostatin (MSTN) (UniProt O14793); remark: listed apart in the source
Myostatin (MSTN) [4] = molecular target: T1, Myostatin (MSTN); assay: cell-based or functional assay
[5] = molecular target: the molecule itself; assay: non-reducing SDS-PAGE; samples boiled in SDS loading buffer without beta-mercaptoethanol (unreduced) or with it (reduced); 15% gel, Coomassie blue; can show only disulfide-linked dimers

Sequence of MBP-fused truncated pig MSTNpro containing residues 42-218 (O18831 42-218): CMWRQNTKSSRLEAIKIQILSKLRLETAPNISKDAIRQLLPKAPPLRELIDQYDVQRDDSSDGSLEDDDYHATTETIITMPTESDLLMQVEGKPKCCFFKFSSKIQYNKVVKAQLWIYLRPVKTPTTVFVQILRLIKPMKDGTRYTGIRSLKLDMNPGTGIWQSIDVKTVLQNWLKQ
Sequence of Pro42-175 (MBP removed by factor Xa) (O18831 42-175): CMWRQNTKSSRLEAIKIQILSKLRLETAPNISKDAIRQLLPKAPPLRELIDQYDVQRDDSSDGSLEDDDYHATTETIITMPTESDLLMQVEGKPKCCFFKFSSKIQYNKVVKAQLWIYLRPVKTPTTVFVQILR
Sequence of Pro23-98 (MBP removed by factor Xa) (O18831 23-98): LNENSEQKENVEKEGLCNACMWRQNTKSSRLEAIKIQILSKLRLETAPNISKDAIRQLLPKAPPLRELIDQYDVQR

Molecule | IC50 to suppress 1 nM MSTN activity, pGL3-(CAGA)12-luciferase reporter assay in HEK293 cells (Myostatin (MSTN) [1]) | also measured
Full sequence MBP-fused pig MSTNpro (metalloproteinase-resistant mutant) (domain or fragment) | 2.8 nM | –
MBP-fused truncated pig MSTNpro containing residues 42-115 (from UniProt O18831 42-115) (domain or fragment) | 17.7 nM | –
MBP-fused truncated pig MSTNpro containing residues 42-175 (from UniProt O18831 42-175) (domain or fragment) | 2.7 nM | –
MBP-fused truncated pig MSTNpro containing residues 42-218 (from UniProt O18831 42-218) (domain or fragment) | 3.3 nM | –
Pro23-98 (MBP removed by factor Xa) (from UniProt O18831 23-98) (domain or fragment) | – | stoichiometry N [2]: 2
Pro42-175 (MBP removed by factor Xa) (from UniProt O18831 42-175) (domain or fragment) | – | IC50 to suppress 1 nM MSTN, (CAGA)12-luciferase reporter gene assay, after removal of MBP (Myostatin (MSTN) [3]): 44.9 nM
MBP-fused truncated pig MSTNpro containing residues 42-98 (domain or fragment, UniProt O18831 42-98, looked up) CMWRQNTKSSRLEAIKIQILSKLRLETAPNISKDAIRQLLPKAPPLRELIDQYDVQR | – | IC50 to suppress 1 nM MSTN activity, pGL3-(CAGA)12-luciferase reporter assay in HEK293 cells (Myostatin (MSTN) [4]): 24.1 nM
Pro42-98 (MBP removed by factor Xa) (domain or fragment, pig, UniProt O18831 42-98, looked up, Pig myostatin propeptide (MSTNpro), residues 42-98; Derived from m4; also called MBP-removed MSTNpro domain containing residues 42-98; source: E. coli K12TB1; MBP-Pro42-98 digested with factor Xa, soluble fraction of the digest / Superdex 75 fraction f16; not shown: MBP, N-terminal, cleaved) CMWRQNTKSSRLEAIKIQILSKLRLETAPNISKDAIRQLLPKAPPLRELIDQYDVQR | – | stoichiometry N [5]: 2
